Measurements: patent publication US20160362487A1 (Regeneron, published 2016)

T1: human IL-33 (R&D Systems, #3625-IL-010/CF) (human, UniProt O95760 112-270)
T1 construct: Commercial recombinant protein; also called hIL-33; interleukin-33
T1 sequence (looked up): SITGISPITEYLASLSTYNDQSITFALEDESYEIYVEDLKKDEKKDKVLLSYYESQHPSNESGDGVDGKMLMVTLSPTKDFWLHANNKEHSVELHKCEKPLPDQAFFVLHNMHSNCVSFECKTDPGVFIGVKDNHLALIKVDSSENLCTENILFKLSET

T2: cynomolgus monkey IL-33 expressed with a C-terminal hexahistidine tag (cynomolgus monkey)
T2 construct: also called MfIL-33-6His; Mf-IL-33-6His
T2 chain: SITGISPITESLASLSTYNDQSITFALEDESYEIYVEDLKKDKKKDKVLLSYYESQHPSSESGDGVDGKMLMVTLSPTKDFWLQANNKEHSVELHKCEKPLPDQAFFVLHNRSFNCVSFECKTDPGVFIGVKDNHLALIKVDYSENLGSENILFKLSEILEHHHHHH


Experiments:
[1] = molecular target: T1, human IL-33 (R&D Systems, …); assay: SPR 37C pH7.4, mAb captured
Experimental: (§1) Equilibrium dissociation constants (KD values) for IL-33 binding to purified anti-IL-33 monoclonal antibodies were determined using a real-time surface plasmon resonance biosensor using a Biacore 4000 instrument. The Biacore sensor surface was first derivatized by amine coupling with either a polyclonal rabbit anti-mouse antibody (GE, # BR-1008-38) or with a monoclonal mouse anti-human Fc antibody (GE, # BR-1008-39) to capture anti-IL-33 monoclonal antibodies expressed with mouse or with human IgG4 constant regions, respectively. All Biacore binding studies were performed in 0.01M ADA pH 7.4, 0.15M NaCl, 3 mM EDTA, and 0.05% v/v Surfactant Tween-20 (ABS-ET running buffer). […] Association of either hIL-33 or MfIL-33-6His to the captured monoclonal antibody was monitored for 4 minutes and their dissociation in ABS-ET running buffer was monitored for 10 minutes. The effect of reduced pH on the binding of each anti-IL-33 antibody to either hIL-33 or MfIL-33-6His was studied using an in-line pH chase assay format in 0.01M ADA pH 6.0, 0.15M NaCl, 3 mM EDTA, and 0.05% v/v Surfactant Tween-20 (ABS-ET pH6 buffer). To achieve this, association of either hIL-33 or MfIL-33-6His to the captured monoclonal antibody was monitored for 4 minutes in ABS-ET running buffer. Following a 30 second dissociation of either hIL-33 or MfIL-33-6His in ABS-ET running buffer, ABS-ET pH6 buffer was injected for 3 minutes, and the analyte dissociation under the low-pH conditions was measured. All the binding kinetic experiments were performed at both 25° C. and 37° C. Kinetic association (kₐ) and dissociation (kd) constants were determined by fitting the real-time sensorgrams to a 1:1 binding model using Scrubber 2.0c curve fitting software. Binding dissociation equilibrium constants (KD) and dissociative half-lives (t½) were calculated from the kinetic rate constants as: […]

[2] = molecular target: T2, cynomolgus monkey IL-33 expressed with …; assay: SPR 37C pH7.4, mAb captured
Experimental: as §1

[3] = molecular target: T1, human IL-33 (R&D Systems, …); assay: SPR 25C pH7.4, mAb captured; lower limit, kd fixed
Experimental: as §1, with “The effect of reduced pH on the binding of each anti-IL-33 antibody to either hIL-33 or MfIL-33-6His was studied using an in-line pH chase assay format in 0.01M ADA pH 6.0, 0.15M NaCl, 3 mM EDTA, and 0.05% v/v Surfactant Tween-20 (ABS-ET pH6 buffer).” left out, “All the binding kinetic experiments were performed at both 25° C. and 37° C. Kinetic association (kₐ) and dissociation (kd) constants were determined by fitting the real-time sensorgrams to a 1:1 binding model using Scrubber 2.0c curve fitting software.” left out

[4] = molecular target: T2, cynomolgus monkey IL-33 expressed with …; assay: BLI; captured MfIL-33-6His, mAb-1 step with Buffer
Experimental: Binding competition between a panel of different anti-IL-33 monoclonal antibodies was determined using a real time, label-free bio-layer interferometry assay on an Octet® HTX biosensor (ForteBio, A Division of Pall Life Sciences). The experiment was performed at 25° C. using a buffer of 0.01M HEPES pH7.4, 0.15M NaCl, 3 mM EDTA, 0.05% v/v Surfactant Tween-20, and 0.1 mg/ml BSA (HBS-ET kinetics buffer) with the plate shaking at a speed of 1000 rpm. […] The antigen-captured biosensors were then saturated with a first anti-IL-33 monoclonal antibody (subsequently referred to as mAb-1) by immersion into wells containing 50 μg/mL solution of mAb-1 for 5 minutes. The biosensors were then dipped into wells containing a 50 μg/mL solution of a second anti-IL-33 monoclonal antibody (subsequently referred to as mAb-2) for 4 minutes. The biosensors were washed in HBS-ET kinetics buffer in between every step of the experiment. The real-time binding response was monitored during the experiment, and the maximum binding response for each binding step was recorded. The response of mAb-2 binding to MfIL-33-6His pre-complexed with mAb-1 was measured, and competitive/non-competitive behavior of different anti-IL-33 monoclonal antibodies with respect to each other was determined.

[5] = molecular target: T3, pre-formed complex of hIL-33 and captured hST2-MMH (human, UniProt O95760 112-270); assay: SPR Biacore T-200, 25C
T3 construct: Ligand-receptor complex on the sensor: hST2-MMH captured by anti-myc mAb and saturated with 100 nM hIL-33; also called hIL-33 pre-complexed with hST2-MMH
Experimental: The ability of anti-IL-33 antibodies to bind to a pre-formed complex of IL-33 with ST2 was tested using Biacore T-200 instrument equipped with a real-time surface plasmon resonance biosensor. The experiment was performed at 25° C. with a running buffer composed of 0.01M HEPES pH 7.4, 0.15M NaCl, 3 mM EDTA, and 0.05% v/v Surfactant Tween-20 (HBS-ET). […] The captured hST2-MMH surface was then saturated by injecting 100 nM of human IL-33 (hIL-33; R&D Systems, #3625-IL-010/CF) for 3 minutes followed by a 3 minute injection of a 100 nM solution of the anti-IL-33 monoclonal antibody. The real-time binding response was monitored during the entire course of the experiment, and the observed binding response at 3 minutes after injection of anti-IL-33 antibody to the pre-formed complex of hIL-33 and captured hST2-MMH was recorded and tabulated and shown in Table 7. No non-specific binding of anti-IL-33 monoclonal antibody to the anti-myc tag capture surface was observed.

[6] = molecular target: T1, human IL-33 (R&D Systems, …); assay: cell-based or functional assay

| Kd [1] [nM] | koff [1] [s⁻¹] | kon [1] [M⁻¹ s⁻¹] | t½ [1] [min] | Kd [2] [nM] | koff [2] [s⁻¹] | kon [2] [M⁻¹ s⁻¹] | t½ [2] [min] | t½ [3] [min] | mAb-2 Binding to the Pre-complex of mAb-1 & MfIL-33-6xHis [4] [nm] | binding result [5] | IC50, blocking of IFN-γ release from human PBMC induced by 260 pM hIL-33, donor #603486 [6] [M] | IC50, blocking of IFN-γ release from human PBMC induced by 260 pM hIL-33, donor #603487 [6] [M] | Binder |
| --- | --- | --- | --- | --- | --- | --- | --- | --- | --- | --- | --- | --- | --- |
| 1.7 | 0.000283 | 166000 | 41 | 1 | 0.0004 | 399000 | 29 | ≥ 1160 | 0.39 | – | – | – | H1M9566N (antibody, mouse IgG1, V domains shown, Human variable domains, mouse IgG1 Fc (H1M)) VH: EVQLLESGGDLVQPGGSLRLSCAASGFTFSSYAMSWVRQAPGKGLEWVSVISGSGSSTDYADSVKGRFTISRDNSRDTLHLQMNSLRAEDTAVYYCAKTFYYFYGLDVWGQGTTVTVSS VL: DIQMTQSPSSLSASLRDRVTITCRASQGISNYLAWYQQKPGKVPKVLIYAASTLQSGVPSRFSGSGSGTVFTLTISSLQTEDVATYYCQKYSSAPFTFGPGTKVDIK |
| 1.19 | 0.00144 | 1.21e+06 | 8 | 1.91 | 0.0021 | 1.1e+06 | 5 | – | 0.33 | no binding (tested: 100 nM) | 1.04e-08 | 2.34e-08 | H4H9665P (antibody, human IgG4, V domains shown, Human IgG4 Fc (H4H)) VH: EVQLVESGGGLVQPGGSLRLSCAASGFTFSNYAMTWVRQAPGKGLEWVSTISGSGDNTYYADSVQGRFTISRGHSKNTLYLQMNSLRAEDTAVYYCAKPTYSRSWYGAFDFWGQGTMVTVSS VL: DIQMTQSPSSVSASVGDRVTITCRASQGISSWLAWYQQKPGKAPQLLIYAASRLQSGVPSRFWGSGSGTDFTLTISSLQPEDFATYYCQQANNFPFTFGPGTKVDIK |
